Reference: FireProtDB (doi:10.1111/j.1432-1033.1995.tb20713.x)

B1: Adenylate kinase, P07170 (parent)
chain: MSSSESIRMVLIGPPGAGKGTQAPNLQERFHAAHLATGDMLRSQIAKGTQLGLEAKKIMDQGGLVSDDIMVNMIKDELTNNPACKNGFILDGFPRTIPQAEKLDQMLKEQGTPLEKAIELKVDDELLVARITGRLIHPASGRSYHKIFNPPKEDMKDDVTGEALVQRSDDNADALKKRLAAYHAQTEPIVDFYKKTGIWAGVDASQPPATVWADILNKLGKD

Variants of: B1
Details: Saccharomyces cerevisiae (strain ATCC 204508 / S288c), Thermal, Fluorescence, reversible: yes, structure 2AKY, whole UniProt chain shown; for unfolding free energy / ddG of mutation (higher = less stable): 25 °C

Row | Variant | unfolding free energy (pH 4.5, Acetic acid-NaOH 30 mM) [kcal/mol] | Tm (pH 4.5, Acetic acid-NaOH 30 mM) [°C] | unfolding enthalpy (van 't Hoff) (pH 4.5, Acetic acid-NaOH 30 mM) [kcal/mol] | unfolding free energy (pH 7.6, MOPS-NaOH 30 mM) [kcal/mol] | Tm (pH 7.6, MOPS-NaOH 30 mM) [°C] | unfolding enthalpy (van 't Hoff) (pH 7.6, MOPS-NaOH 30 mM) [kcal/mol] | unfolding free energy (pH 5, Acetic acid-NaOH 30 mM) [kcal/mol] | Tm (pH 5, Acetic acid-NaOH 30 mM) [°C] | unfolding enthalpy (van 't Hoff) (pH 5, Acetic acid-NaOH 30 mM) [kcal/mol] | ddG of mutation (higher = less stable) (pH 7.5, MOPS-NaOH 30 mM) [kcal/mol] | unfolding free energy (pH 7.5, MOPS-NaOH 30 mM) [kcal/mol] | Tm (pH 7.5, MOPS-NaOH 30 mM) [°C] | change of melting temperature, mutant - wild type (higher = more stable) (pH 7.5, MOPS-NaOH 30 mM) [°C] | unfolding enthalpy (van 't Hoff) (pH 7.5, MOPS-NaOH 30 mM) [kcal/mol]
1 | T112H | 0.72 | 40.2 | 31.1 | 1.2 | 42.9 | 41.8 |  |  |  |  |  |  |  | 
2 | T79H |  |  |  |  |  |  | 2.87 | 46.8 | 68.1 | 2.15 | 1.67 | 46.6 | -1.1 | 50.2
3 | N171D |  |  |  |  |  |  |  |  |  | 2.15 | 1.67 | 47.1 | -0.6 | 47.8
4 | V10I |  |  |  |  |  |  |  |  |  | 1.2 | 2.63 | 46.2 | -1.5 | 64.5
5 | I215F |  |  |  |  |  |  |  |  |  | 1.91 | 1.91 | 40 | -7.7 | 59.8
